From patent US20250057950A1 (ORICELL THERAPEUTICS, published 2025) come the findings set out here.

What is called EC50 is the midpoint of the concentration-response curve. A high value points to weaker potency. Broadly, the EC50 (read off the curve) is the concentration that produces a half-maximal response. Read a low EC50 (read off the curve) as higher potency in that assay. By Kd is commonly meant the constant that tells how readily two partners part at equilibrium. Higher therefore signals a looser complex.

Experiment [1] deals with T1, human G protein-coupled receptor class C group 5 member D (GPRC5D) protein (human, UniProt Q9NZD1 1-345).
T1 construct: whole, on cells; The same protein on several cell lines; also called HuGPRC5D; CHO-GPRC5D
As to the kind of experiment: flow cytometry (FACS) on K562-GPRC5D cells. A general note: In flow cytometry, cells or beads pass a laser one at a time.

Experiment [2] deals with T1, human G protein-coupled receptor class …. As to the kind of experiment: flow cytometry (FACS) on CHO-GPRC5D cells.
Experiment [3] shares this target. As to the kind of experiment: flow cytometry (FACS) on MM1S myeloma cells. As for the experimental part: The target cells (i.e., MM1S myeloma cells) were formulated with buffer to a concentration of 1×10⁶ cells/mL, and added into a 96-well sharp-bottom plate (corning 3894) with 30 μL in each well. The antibody to be detected was formulated with buffer to a concentration of 10 μg/mL, and subject to 3-fold dilution to form a gradient of 8 concentrations. The formulated antibodies of different concentrations were mixed well with the plated target cells at 30 μL/well, and incubated in a refrigerator at 4° C. for 1 hr. 150 μL of buffer was added into each well, and centrifuged at 300 g for 5 min. The supernatant was discarded, and then the cells were loosened up by shaking, and additionally washed once. The fluorescent secondary antibody (ab98593) was formulated with buffer at a ratio of 1:200, added into each well in an amount of 30 μl and mixed with the cells uniformly, and incubated in the refrigerator at 4° C. for 30 min. 150 μL of buffer was added to each well, and centrifuged at 300 g for 5 min. The supernatant was discarded, and then the cells were loosened up by shaking, and additionally washed once. 35 μL of buffer was added into each well, mixed well, and the mixture was measured by a flow cytometer. Of those, ET150-5scFv is a positive control antibody with the sequence found in the patent application CN107428829A, 3B5VHH has an amino acid sequence as set forth in SEQ ID NO: 15, 3E7VHH has an amino acid sequence as set forth in SEQ ID NO: 19, 4A2VHH has an amino acid sequence as set forth in SEQ ID NO: 24, and 4B3VHH has an amino acid sequence as set forth in SEQ ID NO: 30.

Experiment [4] shares this target. As to the kind of experiment: flow cytometry on GPRC5D-CHO cells, anti-human IgG Fc secondary antibody. As for the experimental part: CHO-GPRC5D target cells were formulated with PBS buffer to a concentration of 1×10⁶ cells/mL, and added into a 96-well sharp-bottom plate (corning 3894) with 30 μL in each well. The antibodies to be detected, G5VHH1-hIgG1Fc and G5VHH2-hIgG1Fc were formulated with PBS buffer to a concentration of 30 μg/mL, and subject to 3-fold dilution to form a gradient of 8 concentrations (with the minimum concentration of 0). The formulated antibodies with different concentrations were mixed well with the plated target cells at 30 μL/well, and incubated in a refrigerator at 4° C. for 1 hr. 150 μL of buffer was added into each well, and centrifuged at 300 g for 5 min. The supernatant was then discarded, and the cells were additionally washed once. Goat-anti-human IgG (Fc-specific, ab98593) fluorescent secondary antibody was formulated with buffer at a ratio of 1:200, added into each well in an amount of 30 μl and mixed with the cells uniformly, and incubated in the refrigerator at 4° C. for 30 min. 170 μL of buffer was added to each well, and centrifuged at 300 g for 5 min. The supernatant was then discarded and the cells were additionally washed once. 35 μL of buffer was added into each well, mixed well, and the mixture was detected by iQue Screener Flow Cytometer (available from IntelliCyt Company). […]

In experiment [5] the target is T2, N-terminal peptide of human GPRC5D (1-27), biotin-labelled (human, labeled with biotin (EZ-Link Sulfo-NHS-LC-Biotin)).
T2 construct: Immobilised on an SA sensor at 20 nM; also called N-terminal peptide (Biotin) of GPRC5D
T2 peptide: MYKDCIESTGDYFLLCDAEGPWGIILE
As to the kind of experiment: BLI (Octet RED384), biotinylated peptide on SA sensor, antibody in solution. An excerpt: (§1) The G5VHH1 and G5VHH2 antibody sequences were cloned into an eukaryotic vector containing p3.4-hIgG1Fc of a human IgG1 Fc fragment (hIgG1Fc) sequence, facilitating the recombinant expression of GPRC5D VHH-hIgG1Fc to give a recombinant protein which was then purified to determine the affinity of G5VHH1-hIgG1Fc and G5VHH2-hIgG1Fc to the affinity N-terminal peptide (Biotin) of GPRC5D. Briefly, the N-terminal peptide of human GPRC5D (>sp|Q9NZD1|1-27: […]) protein was labeled with biotin (EZ-Link Sulfo-NHS-LC-Biotin, Pierce, 21327). By the biolayer interferometry (BLI) technique, the binding kinetics between antigen and antibody was analyzed using the molecular interaction analyzer fortebiooctetRED384 (PALL) (wherein both antigen and antibody were diluted with a PBS buffer containing 0.1% BSA and 0.02% Tween 20). The biotin-conjugated antigen with a concentration of 20 nM was immobilized to an SA sensor, and bound for 3 min; then bound with double-diluted antibody solution (G5VHH1 and G5VHH2 antibodies) for 5 min; and finally dissociated for 5 min. The obtained results were analyzed by Octet Data Analysis 9.0 software (fortebio) to calculate the binding strength between the antigen and the antibody, thereby giving the KD value, Ka (1/Ms) value and Kd (1/s) value. […]

Experiment [6] has as its target human G protein-coupled receptor class C group 5 member D (GPRC5D) protein (human) (UniProt Q9NZD1). Description: flow cytometry (FACS) on K562-GPRC5D cells.
Experiment [7] has the same target. As to the kind of experiment: flow cytometry (FACS) on MM1S myeloma cells.
The target is the same in experiment [8]. As to the kind of experiment: flow cytometry (FACS) on CHO-GPRC5D cells.
For experiment [9], the target named is T2, N-terminal peptide of human GPRC5D …. As to the kind of experiment: BLI (Octet RED384), biotinylated peptide on SA sensor; fit R2 0.7914, model called not credible.
Source text: as §1
For orientation: In BLI a coated tip is dipped into the sample, and binding shifts an interference pattern.

T1 sequence (Q9NZD1 whole entry): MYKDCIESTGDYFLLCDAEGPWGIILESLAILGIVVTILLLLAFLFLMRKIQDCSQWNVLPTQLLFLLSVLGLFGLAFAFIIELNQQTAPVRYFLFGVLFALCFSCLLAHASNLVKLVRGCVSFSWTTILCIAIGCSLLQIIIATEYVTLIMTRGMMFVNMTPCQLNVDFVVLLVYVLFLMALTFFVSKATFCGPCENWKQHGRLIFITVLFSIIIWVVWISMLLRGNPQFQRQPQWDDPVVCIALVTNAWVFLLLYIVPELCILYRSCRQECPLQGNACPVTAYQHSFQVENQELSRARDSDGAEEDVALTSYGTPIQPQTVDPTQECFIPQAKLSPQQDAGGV

B1: 4A2 VHH (VHH)
VHH: EVQLVESGGGLVQPGGSLRLSCAASGFIFSRYDMGWFRQAPGKGRELVAVITWGGGSTYYPDSVEGRFTISRDNAKRMVYLQMNSLRAEDTAVYYCAARSASAYRTGRLEYNYWGQGTQVTVSS
With B1, the values for the EC50 in experiment [1], in experiment [2] and in [3] were 0.164 µg/mL, 0.0687 µg/mL and 0.0195 µg/mL, respectively.

B2: G5VHH2-hIgG1Fc (Fc fusion)
chain: EVQLVESGGGLVQPGGSLRLSCAASGLIFSRYVMGWFRQAPGKGRELVAFINSSGGSTNYPDSVEGRFTISRDNAKRMVYLQMNSLRAEDTAVYYCAASSRTSTTRGYNYWGQGTQVTVSS
notes: also called G5VHH2 antibody; not shown: human IgG1 Fc fragment (hIgG1Fc) of vector p3.4-hIgG1Fc
With B2, in experiment [4], the “EC50 (read off the curve)” value is around 0.4 µg/mL. This molecule also came in with a Kd in [5] of 76.9 nM.

B3: 4B3 VHH (VHH)
VHH: B2 chain
notes: also called G5VHH2
On to B3, for which the values for the EC50 in [1], in experiment [2] and in [3] were 0.216 µg/mL, 0.18 µg/mL and 0.658 µg/mL, respectively.

B4: ET150-5 scFv (scFv, from another filing)
scFv: QSVLTQPPSASGTPGQRVTISCSGSRSNVGGNYVFWYQQVPGATPKLLIYRSNQRPSGVPDRFAGSKSGSSASLAISGLRSEDEADYYCATWDDSLSGFVFGTGTKVTVLGSRGGGGSGGGGSGGGGSLEMAEVQLVESGGGLVKPGGSLRLSCAASGFTFSDYYMSWIRQAPGKGLEWVSYISSSGSTIYYADSVKGRFTISRDNAKNSLYLQMNSLRAEDTAVYYCARGYGKAYDQWGQGTLVTVSS
Take B4: the values for the EC50 in [6], in experiment [7] and in [8] were 0.431 µg/mL, 0.911 µg/mL and 0.249 µg/mL, respectively.

B5: 3B5 VHH (VHH)
VHH: EVQLVESGGGLVQPGGSLRLSCAASGFIFSRYGMGWFRQAPGKGRELVAAINWSDGTTYYPDSVEGRFTISRDNAKRMVYLQMNSLRAEDTAVYYCAADRRLRSQTGYDYWGQGTQVTVSS
notes: From the synthetic nanobody library NanoOri_1.0 (Caplacizumab backbone)
In the case of B5, the EC50 in experiment [1] was found to be 0.207 µg/mL; in experiment [2], 0.103 µg/mL; in experiment [3], 0.0439 µg/mL.

B6: G5VHH1-hIgG1Fc (Fc fusion)
chain: EVQLVESGGGLVQPGGSLRLSCAASGRIFSRDAMGWFRQAPGKGRELVAAINSSGGNTYYPDSVEGRFTISRDNAKRMVYLQMNSLRAEDTAVYYCAARGVRWTSTTAYGYNYWGQGTQVTVSS
notes: also called G5VHH1 antibody; not shown: human IgG1 Fc fragment (hIgG1Fc) of vector p3.4-hIgG1Fc
Regarding B6, in experiment [4], the “EC50 (read off the curve)” value was around 1 µg/mL. Also, the binding result in experiment [9] was “no binding”.

B7: 3E7 VHH (VHH)
VHH: B6 chain
notes: also called G5VHH1
As for B7, the EC50 in experiment [1] amounted to 0.576 µg/mL; in experiment [2], 0.426 µg/mL; in [3] it was 0.286 µg/mL.
